From PMC11574045, “A cofactor-induced repressive type of transcription factor condensation can be induced by synthetic peptides to suppress tumorigenesis” (The EMBO Journal, 2024)

B1: DPRX (protein, UniProt A6NFQ7 1-191, looked up)
Divergent paired-related …: MPGSEDLRKGKDQMHSHRKRTMFTKKQLEDLNILFNENPYPNPSLQKEMASKIDIHPTVLQVWFKNHRAKLKKAKCKHIHQKQETPQPPIPEGGVSTSVGLRNADTLPRLPNAAHPIGLVYTGHRVPSFQLILYPNLKVPANDFIGHRIVHFGCCRDPNIYCLYPILESQVCAPSFHSGSPACSSNQSRER
B2: DMP-1 (protein, UniProt Q9Y222 1-760, looked up)
Cyclin-D-binding Myb-like …: MSTVEEDSDTVTVETVNSVTLTQDTEGNLILHCPQNEADEIDSEDSIEPPHKRLCLSSEDDQSIDDSTPCISVVALPLSENDQSFEVTMTATTEVADDEVTEGTVTQIQILQNEQLDEISPLGNEEVSAVSQAWFTTKEDKDSLTNKGHKWKQGMWSKEEIDILMNNIERYLKARGIKDATEIIFEMSKDERKDFYRTIAWGLNRPLFAVYRRVLRMYDDRNHVGKYTPEEIEKLKELRIKHGNDWATIGAALGRSASSVKDRCRLMKDTCNTGKWTEEEEKRLAEVVHELTSTEPGDIVTQGVSWAAVAERVGTRSEKQCRSKWLNYLNWKQSGGTEWTKEDEINLILRIAELDVADENDINWDLLAEGWSSVRSPQWLRSKWWTIKRQIANHKDVSFPVLIKGLKQLHENQKNNPTLLENKSGSGVPNSNTNSSVQHVQIRVARLEDNTAISSSPMAALQIPVQITHVSSADSPATVDSETITLNSGTLQTFEILPSFHLQPTGTPGTYLLQTSSSQGLPLTLTASPTVTLTAAAPASPEQIIVHALSPEHLLNTSDNVTVQCHTPRVIIQTVATEDITSSISQAELTVDSDIQSSDFPEPPDALEADTFPDEIHHPKMTVEPSFNDAHVSKFSDQNSTELMNSVMVRTEEEISDTDLKQEESPSDLASAYVTEGLESPTIEEQVDQTIDDETILIVPSPHGFIQASDVIDTESVLPLTTLTDPILQHHQEESNIIGSSLGSPVSEDSKDVEDLVNCH
B3: EDF1 (protein, UniProt O60869 2-148, looked up)
Endothelial …: AESDWDTVTVLRKKGPTAAQAKSKQAILAAQRRGEDVETSKKWAAGQNKQHSITKNTAKLDRETEELHHDRVTLEVGKVIQQGRQSKGLTQKDLATKINEKPQVIADYESGRAIPNNQVLGKIERAIGLKLRGKDIGKPIEKGPRAK
B4: DMRTA1 (protein, UniProt Q5VZB9 1-504, looked up)
Doublesex- and mab-3-related …: MERSQCGSRDRGVSGRPHLAPGLVVAAPPPPSPALPVPSGMQVPPAFLRPPSLFLRAAAAAAAAAAATSGSGGCPPAPGLESGVGAVGCGYPRTPKCARCRNHGVVSALKGHKRFCRWRDCACAKCTLIAERQRVMAAQVALRRQQAQEESEARGLQRLLCSGLSWPPGGRASGGGGRAENPQSTGGPAAGAALGLGALRQASGSATPAFEVFQQDYPEEKQEQKESKCESCQNGQEELISKSHQLYLGSSSRSNGVIGKQSIGSSISEYSNKPDSILSPHPGEQSGGEESPRSLSSSDLESGNESEWVKDLTATKASLPTVSSRPRDPLDILTKIFPNYRRSRLEGILRFCKGDVVQAIEQVLNGKEHKPDNRNLANSEELENTAFQRASSFSLAGIGFGTLGNKSAFSPLQTTSASYGGDSSLYGVNPRVGISPLRLAYSSAGRGLSGFMSPYLTPGLVPTLPFRPALDYAFSGMIRDSSYLSSKDSITCGRLYFRPNQDNP
B5: AEBP2 (protein, UniProt Q6ZN18 2-517, looked up)
Zinc finger protein AEBP2: AAAITDMADLEELSRLSPLPPGSPGSAARGRAEPPEEEEEEEEEEEEAEAEAVAALLLNGGSGGGGGGGGGGVGGGEAETMSEPSPESASQAGEDEDEEEDDEEEEDESSSSGGGEEESSAESLVGSSGGSSSDETRSLSPGAASSSSGDGDGKEGLEEPKGPRGSQGGGGGGSSSSSVVSSGGDEGYGTGGGGSSATSGGRRGSLEMSSDGEPLSRMDSEDSISSTIMDVDSTISSGRSTPAMMNGQGSTTSSSKNIAYNCCWDQCQACFNSSPDLADHIRSIHVDGQRGGVFVCLWKGCKVYNTPSTSQSWLQRHMLTHSGDKPFKCVVGGCNASFASQGGLARHVPTHFSQQNSSKVSSQPKAKEESPSKAGMNKRRKLKNKRRRSLPRPHDFFDAQTLDAIRHRAICFNLSAHIESLGKGHSVVFHSTVIAKRKEDSGKIKLLLHWMPEDILPDVWVNESERHQLKTKVVHLSKLPKDTALLLDPNIYRTMPQKRLKRTLIRKVFNLYLSKQ
B6: DLX4 (protein, UniProt Q92988 1-240, looked up)
Homeobox protein DLX-4: MTSLPCPLPGRDASKAVFPDLAPVPSVAAAYPLGLSPTTAASPNLSYSRPYGHLLSYPYTEPANPGDSYLSCQQPAALSQPLCGPAEHPQELEADSEKPRLSPEPSERRPQAPAKKLRKPRTIYSSLQLQHLNQRFQHTQYLALPERAQLAAQLGLTQTQVKIWFQNKRSKYKKLLKQNSGGQEGDFPGRTFSVSPCSPPLPSLWDLPKAGTLPTSGYGNSFGAWYQHHSSDVLASPQMM
B7: DLX2 (protein, UniProt Q07687 1-328, looked up)
Homeobox protein DLX-2: MTGVFDSLVADMHSTQIAASSTYHQHQQPPSGGGAGPGGNSSSSSSLHKPQESPTLPVSTATDSSYYTNQQHPAGGGGGGGSPYAHMGSYQYQASGLNNVPYSAKSSYDLGYTAAYTSYAPYGTSSSPANNEPEKEDLEPEIRIVNGKPKKVRKPRTIYSSFQLAALQRRFQKTQYLALPERAELAASLGLTQTQVKIWFQNRRSKFKKMWKSGEIPSEQHPGASASPPCASPPVSAPASWDFGVPQRMAGGGGPGSGGSGAGSSGSSPSSAASAFLGNYPWYHQTSGSASHLQATAPLLHPTQTPQPHHHHHHHGGGGAPVSAGTIF
B8: EID1 (protein, UniProt Q9Y6B2 1-187, looked up)
EP300-interacting inhibitor …: MSEMAELSELYEESSDLQMDVMPGEGDLPQMEVGSGSRELSLRPSRSGAQQLEEEGPMEEEEAQPMAAPEGKRSLANGPNAGEQPGQVAGADFESEDEGEEFDDWEDDYDYPEEEQLSGAGYRVSAALEEADKMFLRTREPALDGGFQMHYEKTPFDQLAFIEELFSLMVVNRLTEELGCDEIIDRE
B9: DP-1 (protein, UniProt Q14186 1-410, looked up)
Transcription factor Dp-1: MAKDAGLIEANGELKVFIDQNLSPGKGVVSLVAVHPSTVNPLGKQLLPKTFGQSNVNIAQQVVIGTPQRPAASNTLVVGSPHTPSTHFASQNQPSDSSPWSAGKRNRKGEKNGKGLRHFSMKVCEKVQRKGTTSYNEVADELVAEFSAADNHILPNESAYDQKNIRRRVYDALNVLMAMNIISKEKKEIKWIGLPTNSAQECQNLEVERQRRLERIKQKQSQLQELILQQIAFKNLVQRNRHAEQQASRPPPPNSVIHLPFIIVNTSKKTVIDCSISNDKFEYLFNFDNTFEIHDDIEVLKRMGMACGLESGSCSAEDLKMARSLVPKALEPYVTEMAQGTVGGVFITTAGSTSNGTRFSASDLTNGADGMLATSSNGSQYSGSRVETPVSYVGEDDEEDDDFNENDEDD
B10: ACTL6B (protein, UniProt Q99MR0 1-426, looked up)
Actin-like protein 6B: MSGGVYGGDEVGALVFDIGSFSVRAGYAGEDCPKADFPTTVGLLAAEEGGGLELEGEKEKKGKIFHIDTNALHVPRDGAEVMSPLKNGMIEDWECFRAILDHTYSKHVKSEPNLHPVLMSEAPWNTRAKREKLTELMFEQYNIPAFFLCKTAVLTAFANGRSTGLVLDSGATHTTAIPVHDGYVLQQGIVKSPLAGDFISMQCRELFQEMAIDIIPPYMIAAKEPVREGAPPNWKKKEKLPQVSKSWHNYMCNEVIQDFQASVLQVSDSPYDEQVAAQMPTVHYEMPNGYNTDYGAERLRIPEGLFDPSNVKGLSGNTMLGVGHVVTTSIGMCDIDIRPGLYGSVIVTGGNTLLQGFTDRLNRELSQKTPPSMRLKLIASNSTMERKFSPWIGGSILASLGTFQQMWISKQEYEEGGKQCVERKCP
B11: ADNP (protein, UniProt Q9H2P0 1-1102, looked up)
Activity-dependent …: MFQLPVNNLGSLRKARKTVKKILSDIGLEYCKEHIEDFKQFEPNDFYLKNTTWEDVGLWDPSLTKNQDYRTKPFCCSACPFSSKFFSAYKSHFRNVHSEDFENRILLNCPYCTFNADKKTLETHIKIFHAPNASAPSSSLSTFKDKNKNDGLKPKQADSVEQAVYYCKKCTYRDPLYEIVRKHIYREHFQHVAAPYIAKAGEKSLNGAVPLGSNAREESSIHCKRCLFMPKSYEALVQHVIEDHERIGYQVTAMIGHTNVVVPRSKPLMLIAPKPQDKKSMGLPPRIGSLASGNVRSLPSQQMVNRLSIPKPNLNSTGVNMMSSVHLQQNNYGVKSVGQGYSVGQSMRLGLGGNAPVSIPQQSQSVKQLLPSGNGRSYGLGSEQRSQAPARYSLQSANASSLSSGQLKSPSLSQSQASRVLGQSSSKPAAAATGPPPGNTSSTQKWKICTICNELFPENVYSVHFEKEHKAEKVPAVANYIMKIHNFTSKCLYCNRYLPTDTLLNHMLIHGLSCPYCRSTFNDVEKMAAHMRMVHIDEEMGPKTDSTLSFDLTLQQGSHTNIHLLVTTYNLRDAPAESVAYHAQNNPPVPPKPQPKVQEKADIPVKSSPQAAVPYKKDVGKTLCPLCFSILKGPISDALAHHLRERHQVIQTVHPVEKKLTYKCIHCLGVYTSNMTASTITLHLVHCRGVGKTQNGQDKTNAPSRLNQSPSLAPVKRTYEQMEFPLLKKRKLDDDSDSPSFFEEKPEEPVVLALDPKGHEDDSYEARKSFLTKYFNKQPYPTRREIEKLAASLWLWKSDIASHFSNKRKKCVRDCEKYKPGVLLGFNMKELNKVKHEMDFDAEWLFENHDEKDSRVNASKTADKKLNLGKEDDSSSDSFENLEEESNESGSPFDPVFEVEPKISNDNPEEHVLKVIPEDASESEEKLDQKEDGSKYETIHLTEEPTKLMHNASDSEVDQDDVVEWKDGASPSESGPGSQQVSDFEDNTCEMKPGTWSDESSQSEDARSSKPAAKKKATMQGDREQLKWKNSSYGKVEGFWSKDQSQWKNASENDERLSNPQIEWQNSTIDSEDGEQFDNMTDGVAEPMHGSLAGVKLSSQQA
B12: ELF3 (protein, UniProt P78545 1-371, looked up)
ETS-related transcription …: MAATCEISNIFSNYFSAMYSSEDSTLASVPPAATFGADDLVLTLSNPQMSLEGTEKASWLGEQPQFWSKTQVLDWISYQVEKNKYDASAIDFSRCDMDGATLCNCALEELRLVFGPLGDQLHAQLRDLTSSSSDELSWIIELLEKDGMAFQEALDPGPFDQGSPFAQELLDDGQQASPYHPGSCGAGAPSPGSSDVSTAGTGASRSSHSSDSGGSDVDLDPTDGKLFPSDGFRDCKKGDPKHGKRKRGRPRKLSKEYWDCLEGKKSKHAPRGTHLWEFIRDILIHPELNEGLMKWENRHEGVFKFLRSEAVAQLWGQKKKNSNMTYEKLSRAMRYYYKREILERVDGRRLVYKFGKNSSGWKEEEVLQSRN

tested on: HEK293FT cells transfected with TF library; test: Screening of TF condensates based on fluorescent puncta; format: cell-based; details: Figure 1B numerical data; TF library screen, one value per transcriptional factor
Protocol: TF plasmids were automatically added to black-walled 384-well plates at 80 ng per well to reach a final concentration of 1.6 μg/ml. Polyethylenimine (PEI, Sigma) was then added to the plasmid-loaded plates at 240 ng per well (4.8 μg/ml). Subsequently, HEK293FT cells were seeded into the plate at 2000 cells per well. After 60 h, cells were cultured in medium with or without glucose for 12 h, and then fixed with 4% paraformaldehyde (PFA) at room temperature for 30 min. After three washes with PBS, fixed cells were permeabilized with 0.05% Triton X-100 for 15 min. Thereafter, cells were blocked with 5% BSA for 1 h, and then incubated overnight with anti-Flag (Sigma F3165, 1:200) and anti-GAL4 (Abbkine ABP57232, 1:200) primary antibodies at 4 °C. The cells were then gently washed with PBS, followed by being incubated with Alexa Fluor Plus 488 goat anti-mouse IgG secondary antibody (Thermo A32723, 1:400) or Alexa Fluor Plus 488 goat anti-rabbit IgG secondary antibody (Thermo A32731, 1:400) for 1 h. The plates were kept at 4 °C in the dark before being analyzed using an Opera System (Perkin Elmer). Fifty random fields per well were scanned and analyzed using the Columbus Plus Image Data Storage and Analysis System (Perkin Elmer).

Molecule | Z score of condensed fraction
B1 | -0.8656
B2 | 2.192
B3 | -0.3636
B4 | -0.1434
B5 | 0.1647
B6 | -0.356
B7 | 0.04096
B8 | 1.007
B9 | 0.7932
B10 | 0.5544
B11 | -0.6304
B12 | -0.7241
